# Legend:
# Assay in all cases: cell-based or functional assay
# [1] = target: T1, glucagon-like peptide-1 receptor (GLP1R) (Homo sapiens (Human), UniProt P43220 24-463)
# [2] = target: T1, glucagon-like peptide-1 receptor (GLP1R); remark: listed apart in the source
# [3] = target: T1, glucagon-like peptide-1 receptor (GLP1R); remark: listed apart in the source
# [4] = target: T1, glucagon-like peptide-1 receptor (GLP1R); remark: listed apart in the source
# T1 sequence (P43220 24-463): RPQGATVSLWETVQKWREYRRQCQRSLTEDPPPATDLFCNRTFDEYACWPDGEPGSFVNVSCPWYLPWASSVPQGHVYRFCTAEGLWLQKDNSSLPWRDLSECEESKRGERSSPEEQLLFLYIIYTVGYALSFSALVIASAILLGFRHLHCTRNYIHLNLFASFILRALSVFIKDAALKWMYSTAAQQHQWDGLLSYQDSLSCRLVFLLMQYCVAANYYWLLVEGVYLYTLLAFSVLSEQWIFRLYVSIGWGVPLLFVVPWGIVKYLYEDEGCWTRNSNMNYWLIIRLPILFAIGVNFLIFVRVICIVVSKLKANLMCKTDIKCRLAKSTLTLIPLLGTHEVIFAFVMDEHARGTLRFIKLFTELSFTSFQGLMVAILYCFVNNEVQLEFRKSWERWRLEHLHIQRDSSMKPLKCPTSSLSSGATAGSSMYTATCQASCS
Binder,EC50 (nM) of GLP1 (7-36) in the cAMP assay after 100 nM IgG [2] [nM],also measured
GLP1R-59-2 (antibody) chain 1: QVQLVESGGGVVQPGRSLRLSCAASGFTFSNYGMSWVRQAPGKGLEWVAVISYDAGNKYYADSVKGRFTISRDNSKNTLYLQMNSLRAEDTAVYYCARDMYYDFETVVEGIQWYEALKAGKLGEVVPADDAFDIWGQGTLVTVSSASTKGPSVFPLAPCSRSTSESTAALGCLVKDYFPEPVTVSWNSGALTSGVHTFPAVLQSSGLYSLSSVVTVPSSNFGTQTYTCNVDHKPSNTKVDKTVERKCCVECPPCPAPPVAGPSVFLFPPKPKDTLMISRTPEVTCVVVDVSHEDPEVQFNWYVDGVEVHNAKTKPREEQFNSTFRVVSVLTVVHQDWLNGKEYKCKVSNKGLPAPIEKTISKTKGQPREPQVYTLPPSREEMTKNQVSLTCLVKGFYPSDIAVEWESNGQPENNYKTTPPMLDSDGSFFLYSKLTVDKSRWQQGNVFSCSVMHEALHNHYTQKSLSLSPGK chain 2: HGEGTFTSDVSSYLEEQAAKEFIAWLVKGGGGGGGSGGGGSGGGGSQSALTQPASVSGSPGQSITISCTGTSNDIGTYNYVSWYQQHPGKAPKLMIYDVSGRPSGVSNRFSGSKSGNTASLTISGLQAEDEADYYCSSYTTSSTEVFGGGTKLTVLGQPKAAPSVTLFPPSSEELQANKATLVCLISDFYPGAVTVAWKADSSPVKAGVETTTPSKQSNNKYAASSYLSLTPEQWKSHRSYSCQVTHEGSTVEKTVAPTECS,,"EC50 (nM) of the IgG as agonist, functional assay on GLP-1R overexpressing cells [1]: 0.842 nM"
"GLP1R-238 (antibody, human IgG2, lambda, V domains shown) VH: QVQLVQSGAEVKKPGSSVKVSCKASGGSFSSHAISWVRQAPGQGLEWMGGIIPIFGAPNYAQKFQGRVTITADESTSTAYMELSSLRSEDTAVYYCARANQHFSQAGRAARVPGPSSSLGPRGYHYYGMDVWGQGTLVTVSS VL: QSVLTQPPSVSAAPGQKVTISCSGSTSNIANNYVSWYQQLPGTAPKLLIYANNRRPSGIPDRFSGSKSGTSATLGITGLQTGDEADYYCGAWDVRLDVGVFGGGTKLTVLG",0.0879,
"GLP1R-240 (antibody, human IgG2, lambda) heavy: QVQLVQSGAEVKKPGSSVKVSCKASGGTFNNYGISWVRQAPGQGLEWMGGIIPVFGTANYAQKFQGRVTITADESTSTAYMELSSLRSEDTAVYYCARDMYYDFFGLGTFTSDVSSYLEGQAAKEFIAWLVKGVSPEVVPADDAFDIWGQGTLVTVSSASASTKGPSVFPLAPCSRSTSESTAALGCLVKDYFPEPVTVSWNSGALTSGVHTFPAVLQSSGLYSLSSVVTVPSSNFGTQTYTCNVDHKPSNTKVDKTVERKCCVECPPCPAPPVAGPSVFLFPPKPKDTLMISRTPEVTCVVVDVSHEDPEVQFNWYVDGVEVHNAKTKPREEQFNSTFRVVSVLTVVHQDWLNGKEYKCKVSNKGLPAPIEKTISKTKGQPREPQVYTLPPSREEMTKNQVSLTCLVKGFYPSDIAVEWESNGQPENNYKTTPPMLDSDGSFFLYSKLTVDKSRWQQGNVFSCSVMHEALHNHYTQKSLSLSPG light: QSVLTQPPSVSAAPGQKVTISCSGSSSSIGNNYVSWYQQLPGTAPKLLIYANNKRPSGIPDRFSGSKSGTSATLGITGLQTGDEADYYCATWSSSPRGWVFGGGTKLTVLGQPKAAPSVTLFPPSSEELQANKATLVCLISDFYPGAVTVAWKADSSPVKAGVETTTPSKQSNNKYAASSYLSLTPEQWKSHRSYSCQVTHEGSTVEKTVAPTECS",0.0654,
"GLP1R-239 (antibody, human IgG2, lambda) heavy: QVQLVESGGGVVQPGRSLRLSCAASGFDFSNYGMHWVRQAPGKGLEWVADISYEGSNKYYADSVKGRFTISRDNSKNTLYLQMNSLRAEDTAVYYCAKHMSMQSQGLDNLAARDFINWLIQTKITDGFELSRADLVGDAFDVWGQGTLVTVSSASASTKGPSVFPLAPCSRSTSESTAALGCLVKDYFPEPVTVSWNSGALTSGVHTFPAVLQSSGLYSLSSVVTVPSSNFGTQTYTCNVDHKPSNTKVDKTVERKCCVECPPCPAPPVAGPSVFLFPPKPKDTLMISRTPEVTCVVVDVSHEDPEVQFNWYVDGVEVHNAKTKPREEQFNSTFRVVSVLTVVHQDWLNGKEYKCKVSNKGLPAPIEKTISKTKGQPREPQVYTLPPSREEMTKNQVSLTCLVKGFYPSDIAVEWESNGQPENNYKTTPPMLDSDGSFFLYSKLTVDKSRWQQGNVFSCSVMHEALHNHYTQKSLSLSPG light: QSVLTQPPSVSAAPGQKVTISCSGSTSNIEKNYVSWYQQLPGTAPKLLIYGNDQRPSGIPDRFSGSKSGTSATLGITGLQTGDEADYYCGTWENRLSAVVFGGGTKLTVLGQPKAAPSVTLFPPSSEELQANKATLVCLISDFYPGAVTVAWKADSSPVKAGVETTTPSKQSNNKYAASSYLSLTPEQWKSHRSYSCQVTHEGSTVEKTVAPTECS",0.0799,

# Now from value to binder, other results behind:
EC50 (nM) of GLP1 (7-36) in the cAMP assay after 100 nM IgG [2] [nM],Binder,also measured
0.128,"GLP1R-243 (antibody, human IgG2, lambda, V domains shown) VH: QVQLVQSGAEVKKPGSSVKVSCKASGGTFSTYGINWVRQAPGQGLEWMGGIIPIFGTANYAQKFQGRVTITADESTSTAYMELSSLRSEDTAVYYCARANQHFFGKGDNLAARDFINWLIQTKITDGSNPGYHYYGMDVWGQGTLVTVSS VL: QSVLTQPPSVSAAPGQKVTISCSGSRSNIGKNYVSWYQQLPGTAPKLLIYENNERPSGIPDRFSGSKSGTSATLGITGLQTGDEADYYCSSYTTSNTQVFGGGTKLTVLG",
0.154,"GLP1R-244 (antibody, human IgG2, lambda, V domains shown) VH: QVQLVQSGAEVKKPGSSVKVSCKASGGTFSSYAISWVRQAPGQGLEWMGGIIPIFGTANYAQKFQGRVTITADESTSTAYMELSSLRSEDTAVYYCARANQHFAATGAGEGQAAKEFIAWLVKGRVEIGYHYYGMDVWGQGTLVTVSS VL: QSVLTQPPSVSAAPGQKVTISCSGSSSNIGNNVVSWYQQLPGTAPKLLIYDNDKRRSGIPDRFSGSKSGTSATLGITGLQTGDEADYYCGSWDTSLSVWVFGGGTKLTVLG",
~0.0653,"GLP1R-242 (antibody, human IgG2, lambda) heavy: QVQLVQSGAEVKKPGSSVKVSCKASGGTFSSYEISWVRQAPGQGLEWMGGIIPILGIANYAQKFQGRVTITADESTSTAYMELSSLRSEDTAVYYCAKHMSMQADTGTFTSDVSSYLEGQAAKEFIAWLVKGEFSSRADLVGDAFDVWGQGTLVTVSSASASTKGPSVFPLAPCSRSTSESTAALGCLVKDYFPEPVTVSWNSGALTSGVHTFPAVLQSSGLYSLSSVVTVPSSNFGTQTYTCNVDHKPSNTKVDKTVERKCCVECPPCPAPPVAGPSVFLFPPKPKDTLMISRTPEVTCVVVDVSHEDPEVQFNWYVDGVEVHNAKTKPREEQFNSTFRVVSVLTVVHQDWLNGKEYKCKVSNKGLPAPIEKTISKTKGQPREPQVYTLPPSREEMTKNQVSLTCLVKGFYPSDIAVEWESNGQPENNYKTTPPMLDSDGSFFLYSKLTVDKSRWQQGNVFSCSVMHEALHNHYTQKSLSLSPG light: QSVLTQPPSVSAAPGQKVTISCSGSSSNIENNDVSWYQQLPGTAPKLLIYGNDQRPSGIPDRFSGSKSGTSATLGITGLQTGDEADYYCGTWDNTLSAGVFGGGTKLTVLGQPKAAPSVTLFPPSSEELQANKATLVCLISDFYPGAVTVAWKADSSPVKAGVETTTPSKQSNNKYAASSYLSLTPEQWKSHRSYSCQVTHEGSTVEKTVAPTECS",
0.103,"GLP1R-241 (antibody, human IgG2, lambda) heavy: QVQLVQSGAEVKKPGSSVKVSCKASGGTFSDYAISWVRQAPGQGLEWMGGIIPIFGTTNYAQKFQGRVTITADESTSTAYMELSSLRSEDTAVYYCAKHMSMQGSVAGGTFTSDVSSYLEGQAAKEFIAWLVKGGPSFIRADLVGDAFDVWGQGTLVTVSSASASTKGPSVFPLAPCSRSTSESTAALGCLVKDYFPEPVTVSWNSGALTSGVHTFPAVLQSSGLYSLSSVVTVPSSNFGTQTYTCNVDHKPSNTKVDKTVERKCCVECPPCPAPPVAGPSVFLFPPKPKDTLMISRTPEVTCVVVDVSHEDPEVQFNWYVDGVEVHNAKTKPREEQFNSTFRVVSVLTVVHQDWLNGKEYKCKVSNKGLPAPIEKTISKTKGQPREPQVYTLPPSREEMTKNQVSLTCLVKGFYPSDIAVEWESNGQPENNYKTTPPMLDSDGSFFLYSKLTVDKSRWQQGNVFSCSVMHEALHNHYTQKSLSLSPG light: QSVLTQPPSVSAAPGQKVTISCSGISSNIGNNYVSWYQQLPGTAPKLLIYDDDQRPSGIPDRFSGSKSGTSATLGITGLQTGDEADYYCGTWDNILSAAVFGGGTKLTVLGQPKAAPSVTLFPPSSEELQANKATLVCLISDFYPGAVTVAWKADSSPVKAGVETTTPSKQSNNKYAASSYLSLTPEQWKSHRSYSCQVTHEGSTVEKTVAPTECS",EC50 (nM) of GLP1 (7-36)-induced signaling with GLP1R IgG (+100 nM) [3]: 0.103 nM; fold difference of the EC50 against no antibody [4]: 1.7 fold
